# Reference: publication PMC5171805
# Experiments:
# MEDI1912 IgG (human) [1] = experiment: AUC; sedimentation velocity, 1 mg/mL, 20 °C, 20 mM sodium succinate, 125 mM arginine, pH 6.0 or 150 mM ammonium acetate, pH 6; 28,000 rpm; SEDFIT
# MEDI1912 IgG (human) [2] = experiment: native MS; nESI-IMS-MS, 1 mg/mL dialysed into 150 mM ammonium acetate, pH 6; dimer estimated with respect to the monomer ion intensity
# [3] = molecular target: human NGF (construct not stated) (human) (UniProt P01138); experiment: not stated; Kd for the antigen; method and data in Supplementary Table 2
# MEDI1912_STT (human) = experiment: SPR; Biacore 2000, HBS-EP buffer; 100 RU MEDI1912 or MEDI1912_STT IgG amine coupled to a C1 sensor chip; two-fold dilutions of βNGF (10 nM to 78 fM) at 50 µl/min, 300-3600 s dissociation; 1:1 Langmuir fit
# MEDI1912 (human) = experiment: as above
percent dimer (MEDI1912 IgG (human) [1]) [%],stoichiometry N (MEDI1912 IgG (human) [1]),dimer as percent of the monomer ion intensity (MEDI1912 IgG (human) [2]) [%],stoichiometry N (MEDI1912 IgG (human) [2]),Kd [3] [pM],koff (MEDI1912_STT (human)) [s⁻¹],kon (MEDI1912_STT (human)) [M⁻¹ s⁻¹],koff (MEDI1912 (human)) [s⁻¹],kon (MEDI1912 (human)) [M⁻¹ s⁻¹],Substance
> 75,2,11.4,< 4,1.6 to 9.8,–,–,–,–,MEDI1912 IgG (antibody)
–,–,–,–,–,3.2e-05 to 0.00015,1.8e+07,3.3e-05 to 0.0002,2.1e+07,recombinant βNGF (R&D Systems) (from UniProt P01138 122-241) (ligand)
